In patent publication US20210388087A1 (Chugai, published 2021):

target: T1, CD3 epsilon homodimer protein (UniProt P07766 23-126); assay: SPR Biacore T200, CD3e homodimer on chip, vs unaltered GLS3000 antibody
T1 construct: also called CD3 (CD3 epsilon)
T1 sequence (P07766 23-126): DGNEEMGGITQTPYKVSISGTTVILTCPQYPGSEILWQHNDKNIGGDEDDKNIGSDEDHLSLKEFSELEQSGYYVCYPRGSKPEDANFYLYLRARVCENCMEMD

| Binder | ratio of amounts bound (Z=Y/X) |
| --- | --- |
| GLS3000 Y96L (antibody, name in Kabat numbering, V domains shown, one-arm IgG as m2) VH: QVQLVESGGGVVQPGRSLRLSCAASGFTFSNAWMHWVRQAPGKGLEWVAQIKAKSNNYATYYAESVKGRFTISRDDSKNSLYLQMNSLKTEDTAVYYCRYVHYGAYYGVDAWGQGTTVTVSS VL: DIVMTQSPLSLPVTPGEPASISCRSSQSLVHSNRNTYLHWYQQKPGQAPRLLIYKVSNRFSGVPDRFSGSGSGTDFTLKISRVEAEDVGVYYCGQGTQVPLTFGQGTKLEIK | 0.32 |

target: T2, CD3 epsilon homodimer protein (UniProt P07766 23-126); assay: SPR, antibody over immobilised CD3e homodimer;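 also: SPR at 25 °C with CD3 epsilon homodimer amine-coupled to a CM4 sensor chip and antibody flowed over as analyte in HBS-EP+ running buffer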
T2 construct: also called CD3 (CD3 epsilon)
T2 sequence (P07766 23-126): as the sequence (P07766 23-126) above

| Binder | KD ratio to GLS3000 |
| --- | --- |
| CE115HA000/GLS3000 S27eA (antibody, IgG1, name in Kabat numbering, V domains shown, one-arm IgG1) VH: QVQLVESGGGVVQPGRSLRLSCAASGFTFSNAWMHWVRQAPGKGLEWVAQIKAKSNNYATYYAESVKGRFTISRDDSKNSLYLQMNSLKTEDTAVYYCRYVHYGAYYGVDAWGQGTTVTVSS VL: DIVMTQSPLSLPVTPGEPASISCRSSQSLVHANRNTYLHWYQQKPGQAPRLLIYKVSNRFSGVPDRFSGSGSGTDFTLKISRVEAEDVGVYYCGQGTQVPYTFGQGTKLEIK | 1.01 |
| CE115HA000/GLS3000 F55A (antibody, IgG1, name in Kabat numbering, V domains shown, one-arm IgG1) VH: QVQLVESGGGVVQPGRSLRLSCAASGFTFSNAWMHWVRQAPGKGLEWVAQIKAKSNNYATYYAESVKGRFTISRDDSKNSLYLQMNSLKTEDTAVYYCRYVHYGAYYGVDAWGQGTTVTVSS VL: DIVMTQSPLSLPVTPGEPASISCRSSQSLVHSNRNTYLHWYQQKPGQAPRLLIYKVSNRASGVPDRFSGSGSGTDFTLKISRVEAEDVGVYYCGQGTQVPYTFGQGTKLEIK | 1.16 |
| CE115HA000/GLS3000 F55D (antibody, IgG1, name in Kabat numbering, V domains shown, one-arm IgG1) VH: QVQLVESGGGVVQPGRSLRLSCAASGFTFSNAWMHWVRQAPGKGLEWVAQIKAKSNNYATYYAESVKGRFTISRDDSKNSLYLQMNSLKTEDTAVYYCRYVHYGAYYGVDAWGQGTTVTVSS VL: DIVMTQSPLSLPVTPGEPASISCRSSQSLVHSNRNTYLHWYQQKPGQAPRLLIYKVSNRDSGVPDRFSGSGSGTDFTLKISRVEAEDVGVYYCGQGTQVPYTFGQGTKLEIK | 1.02 |
| CE115HA000/GLS3000 F55E (antibody, IgG1, name in Kabat numbering, V domains shown, one-arm IgG1) VH: QVQLVESGGGVVQPGRSLRLSCAASGFTFSNAWMHWVRQAPGKGLEWVAQIKAKSNNYATYYAESVKGRFTISRDDSKNSLYLQMNSLKTEDTAVYYCRYVHYGAYYGVDAWGQGTTVTVSS VL: DIVMTQSPLSLPVTPGEPASISCRSSQSLVHSNRNTYLHWYQQKPGQAPRLLIYKVSNRESGVPDRFSGSGSGTDFTLKISRVEAEDVGVYYCGQGTQVPYTFGQGTKLEIK | 0.92 |
| CE115HA000/GLS3000 F55G (antibody, IgG1, name in Kabat numbering, V domains shown, one-arm IgG1) VH: QVQLVESGGGVVQPGRSLRLSCAASGFTFSNAWMHWVRQAPGKGLEWVAQIKAKSNNYATYYAESVKGRFTISRDDSKNSLYLQMNSLKTEDTAVYYCRYVHYGAYYGVDAWGQGTTVTVSS VL: DIVMTQSPLSLPVTPGEPASISCRSSQSLVHSNRNTYLHWYQQKPGQAPRLLIYKVSNRGSGVPDRFSGSGSGTDFTLKISRVEAEDVGVYYCGQGTQVPYTFGQGTKLEIK | 1.15 |
| CE115HA000/GLS3000 F55H (antibody, IgG1, name in Kabat numbering, V domains shown, one-arm IgG1) VH: QVQLVESGGGVVQPGRSLRLSCAASGFTFSNAWMHWVRQAPGKGLEWVAQIKAKSNNYATYYAESVKGRFTISRDDSKNSLYLQMNSLKTEDTAVYYCRYVHYGAYYGVDAWGQGTTVTVSS VL: DIVMTQSPLSLPVTPGEPASISCRSSQSLVHSNRNTYLHWYQQKPGQAPRLLIYKVSNRHSGVPDRFSGSGSGTDFTLKISRVEAEDVGVYYCGQGTQVPYTFGQGTKLEIK | 1.02 |
| CE115HA000/GLS3000 F55I (antibody, IgG1, name in Kabat numbering, V domains shown, one-arm IgG1) VH: QVQLVESGGGVVQPGRSLRLSCAASGFTFSNAWMHWVRQAPGKGLEWVAQIKAKSNNYATYYAESVKGRFTISRDDSKNSLYLQMNSLKTEDTAVYYCRYVHYGAYYGVDAWGQGTTVTVSS VL: DIVMTQSPLSLPVTPGEPASISCRSSQSLVHSNRNTYLHWYQQKPGQAPRLLIYKVSNRISGVPDRFSGSGSGTDFTLKISRVEAEDVGVYYCGQGTQVPYTFGQGTKLEIK | 1.28 |
| CE115HA000/GLS3000 F55K (antibody, IgG1, name in Kabat numbering, V domains shown, one-arm IgG1) VH: QVQLVESGGGVVQPGRSLRLSCAASGFTFSNAWMHWVRQAPGKGLEWVAQIKAKSNNYATYYAESVKGRFTISRDDSKNSLYLQMNSLKTEDTAVYYCRYVHYGAYYGVDAWGQGTTVTVSS VL: DIVMTQSPLSLPVTPGEPASISCRSSQSLVHSNRNTYLHWYQQKPGQAPRLLIYKVSNRKSGVPDRFSGSGSGTDFTLKISRVEAEDVGVYYCGQGTQVPYTFGQGTKLEIK | 1.55 |
| CE115HA000/GLS3000 F55L (antibody, IgG1, name in Kabat numbering, V domains shown, one-arm IgG1) VH: QVQLVESGGGVVQPGRSLRLSCAASGFTFSNAWMHWVRQAPGKGLEWVAQIKAKSNNYATYYAESVKGRFTISRDDSKNSLYLQMNSLKTEDTAVYYCRYVHYGAYYGVDAWGQGTTVTVSS VL: DIVMTQSPLSLPVTPGEPASISCRSSQSLVHSNRNTYLHWYQQKPGQAPRLLIYKVSNRLSGVPDRFSGSGSGTDFTLKISRVEAEDVGVYYCGQGTQVPYTFGQGTKLEIK | 1.43 |
| CE115HA000/GLS3000 F55M (antibody, IgG1, name in Kabat numbering, V domains shown, one-arm IgG1) VH: QVQLVESGGGVVQPGRSLRLSCAASGFTFSNAWMHWVRQAPGKGLEWVAQIKAKSNNYATYYAESVKGRFTISRDDSKNSLYLQMNSLKTEDTAVYYCRYVHYGAYYGVDAWGQGTTVTVSS VL: DIVMTQSPLSLPVTPGEPASISCRSSQSLVHSNRNTYLHWYQQKPGQAPRLLIYKVSNRMSGVPDRFSGSGSGTDFTLKISRVEAEDVGVYYCGQGTQVPYTFGQGTKLEIK | 1.29 |
| CE115HA000/GLS3000 F55N (antibody, IgG1, name in Kabat numbering, V domains shown, one-arm IgG1) VH: QVQLVESGGGVVQPGRSLRLSCAASGFTFSNAWMHWVRQAPGKGLEWVAQIKAKSNNYATYYAESVKGRFTISRDDSKNSLYLQMNSLKTEDTAVYYCRYVHYGAYYGVDAWGQGTTVTVSS VL: DIVMTQSPLSLPVTPGEPASISCRSSQSLVHSNRNTYLHWYQQKPGQAPRLLIYKVSNRNSGVPDRFSGSGSGTDFTLKISRVEAEDVGVYYCGQGTQVPYTFGQGTKLEIK | 0.91 |
| CE115HA000/GLS3000 F55P (antibody, IgG1, name in Kabat numbering, V domains shown, one-arm IgG1) VH: QVQLVESGGGVVQPGRSLRLSCAASGFTFSNAWMHWVRQAPGKGLEWVAQIKAKSNNYATYYAESVKGRFTISRDDSKNSLYLQMNSLKTEDTAVYYCRYVHYGAYYGVDAWGQGTTVTVSS VL: DIVMTQSPLSLPVTPGEPASISCRSSQSLVHSNRNTYLHWYQQKPGQAPRLLIYKVSNRPSGVPDRFSGSGSGTDFTLKISRVEAEDVGVYYCGQGTQVPYTFGQGTKLEIK | 1.15 |
| CE115HA000/GLS3000 F55Q (antibody, IgG1, name in Kabat numbering, V domains shown, one-arm IgG1) VH: QVQLVESGGGVVQPGRSLRLSCAASGFTFSNAWMHWVRQAPGKGLEWVAQIKAKSNNYATYYAESVKGRFTISRDDSKNSLYLQMNSLKTEDTAVYYCRYVHYGAYYGVDAWGQGTTVTVSS VL: DIVMTQSPLSLPVTPGEPASISCRSSQSLVHSNRNTYLHWYQQKPGQAPRLLIYKVSNRQSGVPDRFSGSGSGTDFTLKISRVEAEDVGVYYCGQGTQVPYTFGQGTKLEIK | 1.09 |
| CE115HA000/GLS3000 F55R (antibody, IgG1, name in Kabat numbering, V domains shown, one-arm IgG1) VH: QVQLVESGGGVVQPGRSLRLSCAASGFTFSNAWMHWVRQAPGKGLEWVAQIKAKSNNYATYYAESVKGRFTISRDDSKNSLYLQMNSLKTEDTAVYYCRYVHYGAYYGVDAWGQGTTVTVSS VL: DIVMTQSPLSLPVTPGEPASISCRSSQSLVHSNRNTYLHWYQQKPGQAPRLLIYKVSNRRSGVPDRFSGSGSGTDFTLKISRVEAEDVGVYYCGQGTQVPYTFGQGTKLEIK | 1.27 |
| CE115HA000/GLS3000 F55S (antibody, IgG1, name in Kabat numbering, V domains shown, one-arm IgG1) VH: QVQLVESGGGVVQPGRSLRLSCAASGFTFSNAWMHWVRQAPGKGLEWVAQIKAKSNNYATYYAESVKGRFTISRDDSKNSLYLQMNSLKTEDTAVYYCRYVHYGAYYGVDAWGQGTTVTVSS VL: DIVMTQSPLSLPVTPGEPASISCRSSQSLVHSNRNTYLHWYQQKPGQAPRLLIYKVSNRSSGVPDRFSGSGSGTDFTLKISRVEAEDVGVYYCGQGTQVPYTFGQGTKLEIK | 1.15 |
| CE115HA000/GLS3000 F55T (antibody, IgG1, name in Kabat numbering, V domains shown, one-arm IgG1) VH: QVQLVESGGGVVQPGRSLRLSCAASGFTFSNAWMHWVRQAPGKGLEWVAQIKAKSNNYATYYAESVKGRFTISRDDSKNSLYLQMNSLKTEDTAVYYCRYVHYGAYYGVDAWGQGTTVTVSS VL: DIVMTQSPLSLPVTPGEPASISCRSSQSLVHSNRNTYLHWYQQKPGQAPRLLIYKVSNRTSGVPDRFSGSGSGTDFTLKISRVEAEDVGVYYCGQGTQVPYTFGQGTKLEIK | 2.42 |
| CE115HA000/GLS3000 F55V (antibody, IgG1, name in Kabat numbering, V domains shown, one-arm IgG1) VH: QVQLVESGGGVVQPGRSLRLSCAASGFTFSNAWMHWVRQAPGKGLEWVAQIKAKSNNYATYYAESVKGRFTISRDDSKNSLYLQMNSLKTEDTAVYYCRYVHYGAYYGVDAWGQGTTVTVSS VL: DIVMTQSPLSLPVTPGEPASISCRSSQSLVHSNRNTYLHWYQQKPGQAPRLLIYKVSNRVSGVPDRFSGSGSGTDFTLKISRVEAEDVGVYYCGQGTQVPYTFGQGTKLEIK | 1.12 |
| CE115HA000/GLS3000 F55W (antibody, IgG1, name in Kabat numbering, V domains shown, one-arm IgG1) VH: QVQLVESGGGVVQPGRSLRLSCAASGFTFSNAWMHWVRQAPGKGLEWVAQIKAKSNNYATYYAESVKGRFTISRDDSKNSLYLQMNSLKTEDTAVYYCRYVHYGAYYGVDAWGQGTTVTVSS VL: DIVMTQSPLSLPVTPGEPASISCRSSQSLVHSNRNTYLHWYQQKPGQAPRLLIYKVSNRWSGVPDRFSGSGSGTDFTLKISRVEAEDVGVYYCGQGTQVPYTFGQGTKLEIK | 1.72 |
| CE115HA000/GLS3000 F55Y (antibody, IgG1, name in Kabat numbering, V domains shown, one-arm IgG1) VH: QVQLVESGGGVVQPGRSLRLSCAASGFTFSNAWMHWVRQAPGKGLEWVAQIKAKSNNYATYYAESVKGRFTISRDDSKNSLYLQMNSLKTEDTAVYYCRYVHYGAYYGVDAWGQGTTVTVSS VL: DIVMTQSPLSLPVTPGEPASISCRSSQSLVHSNRNTYLHWYQQKPGQAPRLLIYKVSNRYSGVPDRFSGSGSGTDFTLKISRVEAEDVGVYYCGQGTQVPYTFGQGTKLEIK | 1.13 |
| CE115HA000/GLS3000 G89A (antibody, IgG1, name in Kabat numbering, V domains shown, one-arm IgG1) VH: QVQLVESGGGVVQPGRSLRLSCAASGFTFSNAWMHWVRQAPGKGLEWVAQIKAKSNNYATYYAESVKGRFTISRDDSKNSLYLQMNSLKTEDTAVYYCRYVHYGAYYGVDAWGQGTTVTVSS VL: DIVMTQSPLSLPVTPGEPASISCRSSQSLVHSNRNTYLHWYQQKPGQAPRLLIYKVSNRFSGVPDRFSGSGSGTDFTLKISRVEAEDVGVYYCAQGTQVPYTFGQGTKLEIK | 1.1 |
